Results on four molecules are retold here after paper PMC4599368 (Cell reports, 2015).

To fix the notation:
B3: EBOV NP residues 25–457 ([change]) (domain or fragment)
chain: LTAGLSVQQGIVRQRVIPVYQVNNLEEICQLIIQAFEAGVDFQESADSFLLMLCLHHAYQGDYKLFLESGAVKYLEGHGFRFEVKKRDGVKRLEELLPAVSSGKNIKRTLAAMPEEETTEANAGQFLSFASLFLPKLVVGEKACLEKVQRQIQVHAEQGLIQYPTAWQSVGHMMVIFRLMRTNFLIKFLLIHQGMHMVAGHDANDAVISNSVAQARFSGLLIVKTVLDHILQKTERGVRLHPLARTAKVKNEVNSFKAALSSLAKHGEYAPFARLLNLSGVNNLEHGLFPQLSAIALGVATAHGSTLAGVNVGEQYQQLREAATEAEKQLQQYAESRELDHLGLDDQEKKILMNFHQKKNEISFQQTNAMVTLRKERLAKLTEAITAASLPKTSGHYDDDDDIPFPGPINDDDNPGHQDDDPTDSQDTTIPDV

Data set [1] has as its target B3. Briefly: ITC. (In general: In ITC the heat of successive injections is recorded.)
The data set “SEC” deals with the molecule itself. Briefly: SEC. For orientation: Size exclusion chromatography separates by hydrodynamic size, large species first.

B1: EBOV VP35 1–168 (domain or fragment)
chain: MTTRTKGRGHTAATTQNDRMPGPELSGWISEQLMTGRIPVSDIFCDIENNPGLCYASQMQQTKPNPKTRNSQTQTDPICNHSFEEVVQTLASLATVVQQQTIASESLEQRITSLENGLKPVYDMAKTISSLNRVCAEMVAKYDLLVMTTGRATATAAATEAYWAEHGQ
Turning to B1, the binding result in data set [1] is recorded as “binds”.

B2: EBOV VP35 peptide 1–45 (peptide)
peptide: MTTRTKGRGHTAATTQNDRMPGPELSGWISEQLMTGRIPVSDIFC
Take B2: the “fold reduction in binding affinity relative to NPBP” value in data set [1] amounted to 1.5 fold.
Take B3: the binding result in “SEC” is “binds”.

B4: EBOV VP35 peptide 27–48 (peptide)
peptide: GWISEQLMTGRIPVSDIFCDIE
B4: in data set [1], the “fold reduction in binding affinity relative to NPBP” value worked out at 6.5 fold.
